Target: FGFR1 D2-D3 (residues 142-365 of human FGFR1) (human) (UniProt P11362)
Experiment: calculated from the X-ray crystal structure

Sequence of FGFR1 D2-D3 (residues 142-365 of human FGFR1) (human) (P11362 149-359 limits assumed): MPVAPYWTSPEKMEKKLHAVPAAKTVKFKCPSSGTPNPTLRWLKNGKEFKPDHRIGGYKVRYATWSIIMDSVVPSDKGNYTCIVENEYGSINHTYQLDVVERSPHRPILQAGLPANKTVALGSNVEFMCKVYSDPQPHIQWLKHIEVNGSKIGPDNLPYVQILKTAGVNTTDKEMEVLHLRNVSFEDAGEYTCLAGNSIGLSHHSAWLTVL

total accessible surface area buried in the complex: 2200 Å^2
Substance: FGF1 (from UniProt P05230 21-155) (ligand)
